This note sets out measurements from patent publication US20210284724A1 (I MAB BIOPHARMA US, published 2021).

Experiment [1] addresses T1, human CXCL13 (human, UniProt O43927 23-109).
T1 construct: also called huCXCL13; rhCXCL13
T1 sequence (looked up): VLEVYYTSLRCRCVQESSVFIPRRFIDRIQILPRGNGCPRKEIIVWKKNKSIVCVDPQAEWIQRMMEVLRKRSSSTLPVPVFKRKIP
The experiment in a line: SPR Biacore T200. From the text:
In the first approach, mutations were chosen to target the hotspots in LCDR1, HCDR2 and HCDR3. Usually, CDR3 contributes most to antigen binding and heavy chain is more important than light chain for antigen binding. Moreover, LCDR1 is important for antigen binding. For the first trial, random mutations were targeted to hotspots in LCDR1, HCDR2 and HCDR3. Eliminate hotspots that code for conserved and buried amino acids in CDRs. […] After finishing construction of phage library, antigen CXCL13 screening was followed. Antibodies of these sequences were generated, and affinity testing was performed by Biacore T200.

Experiment [2] concerns the target T1, human CXCL13. The experiment can be described thus: SPR Biacore 8K, Fab over immobilised CXCL13. On the procedure:
Among all humanized Fab samples, 71F4A3-VH2VL1, 71F4A3-VH1VL1 (Hz71F4), 71F4A3-VH1VL2, 71F4A3-VH3VL1, 411A11E9-VH1VL4, 411A11E9-VH3VL4, 411A11E9-VH2VL4, 411A11E9-VH3VL2, 411A11E9-VH1VL2, 21H12D9-VH1VL1, 21H12D9-VH2VL2, 21H12D9-VH3VL3, 21H12D9-VH1VL2, 64C10G1-VH1VL3, 64C10G1-VH1VL4, 64C10G1-VH1VL1, 64C10G1-VH1VL2 were selected to test affinity by Biacore 8K. 10 mM HEPES, 150 mM NaCl, 3 mM EDTA, 0.05% Tween-20, pH 7.4 served as running buffer and 10 mM glycine-HCl, pH2.0 served as regeneration buffer. CXCL13 protein were immobilized on Sensor Chip CM5 using amine coupling method (immobilization level ˜250RU). The serial concentrations of Fab (0-20 nM) were injected over immobilized CXCL13 at the flow rate of 30 μl/min. The dissociation phases were 600s.

In experiment [3] the target is T1, human CXCL13. The experiment in a line: cell-based blocking assay, CXCL13 to CXCR5 cells. An outline of the steps:
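CHO-K1 cells expressing CXCR5 were plated at 5×10⁴/well overnight at 37° C, fixed with 2% PFA and blocked with 1% BSA in PBST. Serially diluted humanized Fabs were mixed with an equal volume of human CXCL13 at 0.3 μg/ml and pre-incubated for 30 min at room temperature, and 100 μl of each mix was added to the cells for 30 min. After three PBST washes, bound CXCL13 was captured with 3 μg/ml of a human anti-CXCL13 antibody, detected with anti-human Fc-HRP and read at 450 nm. IC50 was derived from the titration.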

The target in experiment [4] is T1, human CXCL13. The experiment in a line: SPR Biacore, off-rate ranking of Fabs.
Experiment [5] concerns the target T1, human CXCL13. The experiment can be described thus: ELISA binding, Fab.
Experiment [6] has as its target T1, human CXCL13. The experiment in a line: SPR Biacore 8K, Fab over immobilised CXCL13. On the procedure: HuCXCL13 binding affinity by Surface Plasmon Resonance. 411A11E9, 415A3D1, 64C10G1, 21H12D9, 329F2E1, 71F4A3 were selected to produce Fab and tested binding affinity. The binding of the antibodies to huCXCL13 was examined by Biacore 8K. 10 mM HEPES, 150 mM NaCl, 3 mM EDTA, 0.05% Tween-20, pH 7.4 served as running buffer and 10 mM glycine-HCl, pH2.0 served as regeneration buffer. CXCL13 protein was immobilized on Sensor Chip CM5 using amine coupling method (immobilization level ˜30RU). The serial concentrations of Fab (0-16 nM) were injected over immobilized CXCL13 at the flow rate of 30 μl/min. The dissociation phases were 600s.
The source holds these as a separate data set.

B1: 71F4-4B12 (antibody, V domains shown)
VH: EVQLVESGGGLVQPGGSLRLSCAASGIDFSRYWMSWVRQAPGKGLEWVAEINPERNYINYAPSLKDRFTISRDNAKNSLYLQMNSLRAEDTAVYYCARQDDYDKYAMDYWGQGTTVTVSS
VL: DIQMTQSPSSLSASVGDRVTITCKASQDVNTGVTWYQQKPGKAPKLLIYSASYRYTGVPSRFSGSGSGTDFTFTISSLQPEDIATYYCQQYYSTPLTFGGGTKLEIK
notes: not certain; also called 71F4A3-B12
Turning to B1, the kon in the experiment with human CXCL13 [1] worked out at 5.36e+06 M⁻¹ s⁻¹.

B2: 71F4A3-BE3 (antibody, V domains shown)
VH: EVQLVESGGGLVQPGGSLRLSCAASGIDFSRYWMSWVRQAPGKGLEWVAEINPESSTINYAPSLKDRFTISRDNAKNSLYLQMNSLRAEDTAVYYCARQDDYLTYAMDYWGQGTTVTVSS
VL: DIQMTQSPSSLSASVGDRVTITCKASQDVNTAVDWFQQKPGKAPKLLIYSASYRYTGVPSRFSGSGSGTDFTFTISSLQPEDIATYYCQQYYSTPLTFGGGTKLEIK
notes: also called 71F4-BE3
As to B2, the kon with human CXCL13 [1] is 1.03e+06 M⁻¹ s⁻¹.

B3: 71F4A3-4H1 (antibody, V domains shown)
VH: EVQLVESGGGLVQPGGSLRLSCAASGIDFSRYWMSWVRQAPGKGLEWVAEINPESTLINYAPSLKDRFTISRDNAKNSLYLQMNSLRAEDTAVYYCARQDDYRNYAMDYWGQGTTVTVSS
VL: DIQMTQSPSSLSASVGDRVTITCKASQDVNTGVSWFQQKPGKAPKLLIYSASYRYTGVPSRFSGSGSGTDFTFTISSLQPEDIATYYCQQYYSTPLTFGGGTKLEIK
notes: also called 71F4-4H1
With B3, the kon with human CXCL13 [1] worked out at 1.64e+07 M⁻¹ s⁻¹.

B4: 71F4A3-5A4 (antibody, V domains shown)
VH: EVQLVESGGGLVQPGGSLRLSCAASGIDFSRYWMSWVRQAPGKGLEWVAEINPESTGINYAPSLKDRFTISRDNAKNSLYLQMNSLRAEDTAVYYCARQDDYWTYAMDYWGQGTTVTVSS
VL: DIQMTQSPSSLSASVGDRVTITCKASQDVNTAVSWTQQKPGKAPKLLIYSASYRYTGVPSRFSGSGSGTDFTFTISSLQPEDIATYYCQQYYSTPLTFGGGTKLEIK
notes: also called 71F4-5A4
As to B4, the kon with human CXCL13 [1] was determined as 6.58e+06 M⁻¹ s⁻¹.

B5: 71F4A3-VH3VL1 (Fab, V domains shown)
VH: EVQLVQSGGGLVQPGGSLRLSCAASGIDFSRYWMSWVRQAPGKGLEWVGEINPDSSTINYAPSLKDRFTISRDNAKNSLYLQMNSVRAEDTAVYYCARQDDYEYYAMDYWGQGTTVTVSS
VL: DIQMTQSPSSLSASVGDRVTITCKASQDVNTGVAWYQQKPGKAPKLLIYSASYRYTGVPSRFSGSGSGTDFTFTISSLQPEDIATYYCQQYYSTPLTFGGGTKLEIK
notes: Humanized Fab, human gamma 1 and kappa constant domains
For the molecule B5, in the experiment with human CXCL13 [2], binding was characterised by a dissociation constant (Kd) of 934 pM, the off-rate constant (koff) stood at 0.00153 s⁻¹ and the kon stood at 1.64e+06 M⁻¹ s⁻¹. This molecule also returned an IC50 with human CXCL13 [3] of 11300 pM. In the experiment with human CXCL13 [4], this molecule registered a Kd of 462 pM, a koff of 0.000987 s⁻¹ and a kon of 2.14e+06 M⁻¹ s⁻¹. In the experiment with human CXCL13 [5], this molecule came in with an EC50 of 574 pM.

B6: 71F4A3-BD12 (antibody, V domains shown)
VH: EVQLVESGGGLVQPGGSLRLSCAASGIDFSRYWMSWVRQAPGKGLEWVAEINPETTIINYAPSLKDRFTISRDNAKNSLYLQMNSLRAEDTAVYYCARQDDYRHYAMDYWGQGTTVTVSS
VL: DIQMTQSPSSLSASVGDRVTITCKASQDVNTGVAWFQQKPGKAPKLLIYSASYRYTGVPSRFSGSGSGTDFTFTISSLQPEDIATYYCQQYYSTPLTFGGGTKLEIK
notes: also called 71F4-BD12
On to B6, for which, in the experiment with human CXCL13 [1], the kon turned out to be 1.9e+06 M⁻¹ s⁻¹.

B7: 71F4A3-BC1 (antibody, V domains shown)
VH: EVQLVESGGGLVQPGGSLRLSCAASGIDFSRYWMSWVRQAPGKGLEWVAEINPEASSINYAPSLKDRFTISRDNAKNSLYLQMNSLRAEDTAVYYCARQDDYSHYAMDYWGQGTTVTVSS
VL: DIQMTQSPSSLSASVGDRVTITCKASQDVNTGVSWSQQKPGKAPKLLIYSASYRYTGVPSRFSGSGSGTDFTFTISSLQPEDIATYYCQQYYSTPLTFGGGTKLEIK
notes: also called 71F4-BC1
B7 had an on-rate constant (kon) with human CXCL13 [1] of 2.09e+06 M⁻¹ s⁻¹.

B8: 71F4A3-BC4 (antibody, V domains shown)
VH: EVQLVESGGGLVQPGGSLRLSCAASGIDFSRYWMSWVRQAPGKGLEWVAEINPEAGKWNYAPSLKDRFTISRDNAKNSLYLQMNSLRAEDTAVYYCARQDDYTTYAMDYWGQGTTVTVSS
VL: DIQMTQSPSSLSASVGDRVTITCKASQDVNTGVSWYQQKPGKAPKLLIYSASYRYTGVPSRFSGSGSGTDFTFTISSLQPEDIATYYCQQYYSTPLTFGGGTKLEIK
notes: also called 71F4-BC4
For B8, the kon with human CXCL13 [1] turned out to be 362000 M⁻¹ s⁻¹.

B9: 71F4A3-3F12 (antibody, V domains shown)
VH: EVQLVESGGGLVQPGGSLRLSCAASGIDFSRYWMSWVRQAPGKGLEWVAEINPESNFINYAPSLKDRFTISRDNAKNSLYLQMNSLRAEDTAVYYCARQDDYSVYAMDYWGQGTTVTVSS
VL: DIQMTQSPSSLSASVGDRVTITCKASQDVNTGVTWFQQKPGKAPKLLIYSASYRYTGVPSRFSGSGSGTDFTFTISSLQPEDIATYYCQQYYSTPLTFGGGTKLEIK
notes: also called 71F4-3F12
The molecule B9 registered an association rate constant (kon) with human CXCL13 [1] of 6.3e+06 M⁻¹ s⁻¹.

B10: 71F4A3 chimeric Fab (Fab, V domains shown)
VH: EVKLLQSGGGLVQPGGSLKLSCAASGIDFSRYWMSWVRRAPGKGLEWIGEINPDSSTINYAPSLKDKFIISRDNAKNTLYLQMSKVRSEDTALYYCARQDDYEYYAMDYWGQGTSVTVSS
VL: DIVMTQSHKSMSTSVGDRVSITCKASQDVNTGVAWYRQKPGQSPKLLIYSASYRYTGVPDRFTGSGSGTDFTFTISSVQAEDLAVYYCQQYYSTPLTFGAGTKLELK
notes: Fab
B10: in the experiment with human CXCL13 [2], the Kd came out at 782 pM, the koff came to 0.00141 s⁻¹ and the kon came out at 1.8e+06 M⁻¹ s⁻¹. In the experiment with human CXCL13 [6], binding was characterised by a dissociation constant (Kd) of 154 pM, the koff was 0.000285 s⁻¹ and the kon is 1.85e+06 M⁻¹ s⁻¹. The same molecule showed a half-maximal inhibitory concentration (IC50) with human CXCL13 [3] of 5070 pM. In the experiment with human CXCL13 [4], this molecule yielded a Kd of 556 pM, a dissociation rate constant (koff) of 0.00184 s⁻¹ and a kon of 3.3e+06 M⁻¹ s⁻¹. For the same molecule, the concentration giving a half-maximal response (EC50) in the experiment with human CXCL13 [5] is 1490 pM.
